The text below walks through data of patent US20190038704A1.

For experiment [1], the target named is EphA4 on neurons of embryonic day 6 chicken nasal retinal explants (chicken) (UniProt Q07496). In words: cell-based or functional assay.
Experiment [2] addresses mouse EphA4 ectodomain fused to Fc (mouse) (UniProt Q03137). As to the kind of experiment: competition ELISA: ephrin-A5 AP binding to immobilized EphA4 Fc.

Chain of ephrin-A5 Fc (Fc fusion) (P52803 21-203): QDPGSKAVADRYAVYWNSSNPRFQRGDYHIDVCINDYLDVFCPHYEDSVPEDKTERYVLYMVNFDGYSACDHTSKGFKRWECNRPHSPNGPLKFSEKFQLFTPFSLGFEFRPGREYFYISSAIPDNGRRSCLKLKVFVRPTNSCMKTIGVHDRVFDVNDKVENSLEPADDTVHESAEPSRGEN
Chain of EphA4 on neurons of embryonic day 6 chicken nasal retinal explants (chicken) (Q07496 20-986): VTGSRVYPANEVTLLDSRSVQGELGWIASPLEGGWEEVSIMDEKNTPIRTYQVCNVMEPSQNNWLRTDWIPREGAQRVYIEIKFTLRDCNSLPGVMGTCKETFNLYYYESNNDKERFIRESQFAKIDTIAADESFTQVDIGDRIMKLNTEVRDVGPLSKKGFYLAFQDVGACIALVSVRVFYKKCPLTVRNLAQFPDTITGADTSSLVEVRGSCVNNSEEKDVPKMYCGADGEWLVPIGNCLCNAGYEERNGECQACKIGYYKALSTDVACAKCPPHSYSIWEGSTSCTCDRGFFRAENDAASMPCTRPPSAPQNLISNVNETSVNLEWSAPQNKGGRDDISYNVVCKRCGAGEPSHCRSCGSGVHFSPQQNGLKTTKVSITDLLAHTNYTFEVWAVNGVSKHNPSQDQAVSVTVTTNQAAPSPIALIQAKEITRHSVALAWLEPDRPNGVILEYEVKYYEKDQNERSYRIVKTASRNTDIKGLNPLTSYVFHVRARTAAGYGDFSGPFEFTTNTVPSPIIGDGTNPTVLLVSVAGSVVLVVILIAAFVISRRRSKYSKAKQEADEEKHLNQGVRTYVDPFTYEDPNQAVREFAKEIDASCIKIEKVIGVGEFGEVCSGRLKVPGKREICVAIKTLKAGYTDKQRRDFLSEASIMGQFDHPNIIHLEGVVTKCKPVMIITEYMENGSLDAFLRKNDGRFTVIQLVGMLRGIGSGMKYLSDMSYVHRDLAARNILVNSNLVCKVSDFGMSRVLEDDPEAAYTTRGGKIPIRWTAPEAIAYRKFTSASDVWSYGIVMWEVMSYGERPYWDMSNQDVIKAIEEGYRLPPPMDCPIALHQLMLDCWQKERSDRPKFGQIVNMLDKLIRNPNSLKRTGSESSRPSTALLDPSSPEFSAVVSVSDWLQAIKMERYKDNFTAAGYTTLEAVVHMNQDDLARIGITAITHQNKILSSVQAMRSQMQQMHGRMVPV
Chain of mouse EphA4 ectodomain fused to Fc (mouse) (Q03137 20-547): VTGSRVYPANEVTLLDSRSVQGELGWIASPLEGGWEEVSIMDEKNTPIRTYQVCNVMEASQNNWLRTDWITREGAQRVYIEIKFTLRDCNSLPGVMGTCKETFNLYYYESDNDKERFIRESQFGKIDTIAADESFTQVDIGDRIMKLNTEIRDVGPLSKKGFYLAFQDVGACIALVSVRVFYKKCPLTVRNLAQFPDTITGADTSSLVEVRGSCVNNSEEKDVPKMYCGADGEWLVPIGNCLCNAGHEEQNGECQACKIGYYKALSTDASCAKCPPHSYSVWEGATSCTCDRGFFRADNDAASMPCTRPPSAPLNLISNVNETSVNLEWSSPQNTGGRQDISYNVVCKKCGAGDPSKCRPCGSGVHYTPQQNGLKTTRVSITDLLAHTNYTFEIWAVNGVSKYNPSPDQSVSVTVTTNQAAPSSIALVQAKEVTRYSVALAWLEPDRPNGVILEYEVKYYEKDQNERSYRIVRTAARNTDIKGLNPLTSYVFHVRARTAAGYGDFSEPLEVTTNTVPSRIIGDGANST

Turning to ephrin-A5 Fc (Fc fusion), in experiment [1], the percent collapsed growth cones, chicken nasal retinal explants (experiment with APY-d3.am) was found to be 70% and the percent collapsed growth cones, chicken nasal retinal explants (experiment with APY-βAla8.am) came to 65%.

In the case of βAla1-PY-Lys7-βAla8.am (peptide), in experiment [2], the IC50 turned out to be 70 nM.

Usually IC50 stands for the midpoint of a concentration-inhibition curve. Read a low IC50 as inhibition by little substance.
